Experimental data as given in patent US20160024487.

Key:
human α-thrombin (FIIa) = human α-thrombin (FIIa) (UniProt P00734)
[1] = system: 73k-HEP-[N]-FX ins[194]>[DFLAEGGGVR]-HPC4
[2] = system: At least 20 sequences selected from the QF-substrate library
[3] = system: FX ins[194]>[DFLAEGGGVR]-HPC4
[4] = system: 40k-HEP-[N]-FX ins[194]>[DFLAEGGGVR]-HPC4
[5] = system: FX ins[194]>[DFLAEGGGPR]-HPC4
[6] = system: 21k-HEP-[N]-FX ins[194]>[DFLAEGGGVR]-HPC4
[7] = system: FpA_P quenched fluorescence substrate Lys(Dnp)-DFLAEGGGPRIVGG-Lys(Abz)
[8] = system: Lys(Dnp)-ATNATSSPRIVGG-Lys(Abz)
[9] = system: Lys(Dnp)-ATNATHNPRIVGG-Lys(Abz)
[10] = system: Lys(Dnp)-ATNATAMPRIVGG-Lys(Abz)
[11] = system: Lys(Dnp)-ATNATTNPRIVGG-Lys(Abz)
[12] = system: Lys(Dnp)-ATNATFIPRIVGG-Lys(Abz)
[13] = system: Lys(Dnp)-ATNATEVPRIVGG-Lys(Abz)
[14] = system: Lys(Dnp)-ATNATLVPRIVGG-Lys(Abz)
[15] = system: Lys(Dnp)-ATNATINPRIVGG-Lys(Abz)
[16] = system: Lys(Dnp)-EDSDRAIEGRIVGG-Lys(Abz)
[17] = system: Lys(Dnp)-ATNATRIPRIVGG-Lys(Abz)
[18] = system: Lys(Dnp)-ATNATDIPRIVGG-Lys(Abz)
[19] = system: Lys(Dnp)-SEYQTFFNPRIVGG-Lys(Abz)
[20] = system: Lys(Dnp)-ATNATFQPRIVGG-Lys(Abz)
[21] = system: Lys(Dnp)-NESTTKIKPRIVGG-Lys(Abz)
[22] = system: Lys(Dnp)-ATNATKYPRIVGG-Lys(Abz)
[23] = system: Lys(Dnp)-DQVTVAMTPRIVGG-Lys(Abz)
[24] = system: Lys(Dnp)-ATNATYKPRIVGG-Lys(Abz)
[25] = system: Lys(Dnp)-ATNATQQPRIVGG-Lys(Abz)
[26] = system: Lys(Dnp)-ATNATEPPRIVGG-Lys(Abz)
[27] = system: Lys(Dnp)-ATNATKTPRIVGG-Lys(Abz)
[28] = system: Lys(Dnp)-ATNATDKPRIVGG-Lys(Abz)
[29] = system: Lys(Dnp)-ATNATNPPRIVGG-Lys(Abz)
[30] = system: Lys(Dnp)-ATNATEAPRIVGG-Lys(Abz)
[31] = system: Lys(Dnp)-ATNATGNPRIVGG-Lys(Abz)
[32] = system: Lys(Dnp)-ATNATARPRIVGG-Lys(Abz)
[33] = system: Lys(Dnp)-ATNATNDPRIVGG-Lys(Abz)
[34] = system: Lys(Dnp)-ATNATVFPRIVGG-Lys(Abz)
[35] = system: Lys(Dnp)-ATNATFWPRIVGG-Lys(Abz)
[36] = system: Lys(Dnp)-ATNATDEPRIVGG-Lys(Abz)
[37] = system: Lys(Dnp)-ATNATWPPRIVGG-Lys(Abz)
[38] = system: Lys(Dnp)-ATNATTDPRIVGG-Lys(Abz)
[39] = system: Lys(Dnp)-ATNATHHPRIVGG-Lys(Abz)
[40] = system: Lys(Dnp)-ATNATPDPRIVGG-Lys(Abz)
[41] = system: Lys(Dnp)-ATNATIDPRIVGG-Lys(Abz)
[42] = system: Lys(Dnp)-ATNATNGPRIVGG-Lys(Abz)
[43] = system: Lys(Dnp)-ATNATTEPRIVGG-Lys(Abz)
[44] = system: Lys(Dnp)-DNEEGFFSARIVGG-Lys(Abz)
[45] = system: Lys(Dnp)-ATNATAVPRIVGG-Lys(Abz)
[46] = system: Lys(Dnp)-DFLAEGGGPRIVGG-Lys(Abz)
[47] = system: PAR 1 control substrate sequence [Lys(Dnp)-ATNATLDPRIVGG-Lys(Abz)]
[48] = system: Lys(Dnp)-ATNATQNPRIVGG-Lys(Abz)
[49] = system: Lys(Dnp)-ATNATQDPRIVGG-Lys(Abz)
[50] = system: Lys(Dnp)-ATNATDHPRIVGG-Lys(Abz)
[51] = system: Lys(Dnp)-ATNATHGPRIVGG-Lys(Abz)
[52] = system: Lys(Dnp)-ATNATQPPRIVGG-Lys(Abz)
[53] = system: Lys(Dnp)-ATNATHFPRIVGG-Lys(Abz)
[54] = system: Lys(Dnp)-ATNATKMPRIVGG-Lys(Abz)
[55] = system: Lys(Dnp)-ATNATVSPRIVGG-Lys(Abz)
[56] = system: Lys(Dnp)-ATNATPFPRIVGG-Lys(Abz)
[57] = system: Lys(Dnp)-ATNATANPRIVGG-Lys(Abz)
[58] = system: Lys(Dnp)-ATNATVLPRIVGG-Lys(Abz)
[59] = system: Lys(Dnp)-ATNATPAPRIVGG-Lys(Abz)
[60] = system: Lys(Dnp)-ATNATDFPRIVGG-Lys(Abz)
[61] = system: Lys(Dnp)-ATNATKHPRIVGG-Lys(Abz)

Sequence of FX ins[194]>[DFLAEGGGVR]-HPC4 (chain, as listed by the source): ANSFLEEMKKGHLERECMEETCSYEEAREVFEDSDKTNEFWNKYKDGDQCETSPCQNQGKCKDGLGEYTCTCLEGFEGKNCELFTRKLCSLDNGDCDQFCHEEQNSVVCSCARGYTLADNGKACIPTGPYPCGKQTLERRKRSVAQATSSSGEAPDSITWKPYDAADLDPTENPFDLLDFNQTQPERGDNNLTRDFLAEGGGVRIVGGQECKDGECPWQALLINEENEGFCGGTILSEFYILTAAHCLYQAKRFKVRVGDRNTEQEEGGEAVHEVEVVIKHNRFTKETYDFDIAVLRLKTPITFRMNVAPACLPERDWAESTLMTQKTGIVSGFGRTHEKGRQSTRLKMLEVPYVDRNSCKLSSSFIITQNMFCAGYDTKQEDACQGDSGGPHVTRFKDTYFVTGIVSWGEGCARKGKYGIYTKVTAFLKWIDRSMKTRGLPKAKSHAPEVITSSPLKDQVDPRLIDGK
Sequence of FX ins[194]>[DFLAEGGGPR]-HPC4 (chain, as listed by the source): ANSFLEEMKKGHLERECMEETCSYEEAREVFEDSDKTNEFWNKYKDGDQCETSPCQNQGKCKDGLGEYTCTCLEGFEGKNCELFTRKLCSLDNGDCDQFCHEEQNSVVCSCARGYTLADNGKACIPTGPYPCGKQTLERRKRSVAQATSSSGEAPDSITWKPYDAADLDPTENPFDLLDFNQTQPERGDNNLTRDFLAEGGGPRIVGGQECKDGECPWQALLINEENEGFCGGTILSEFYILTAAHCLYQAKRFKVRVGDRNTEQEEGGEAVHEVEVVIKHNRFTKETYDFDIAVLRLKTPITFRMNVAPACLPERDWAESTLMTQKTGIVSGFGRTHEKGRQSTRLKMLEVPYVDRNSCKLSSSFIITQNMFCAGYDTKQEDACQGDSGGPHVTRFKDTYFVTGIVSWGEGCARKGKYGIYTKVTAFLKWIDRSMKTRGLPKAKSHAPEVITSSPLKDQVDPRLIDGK

## FX-HPC4
Human α-thrombin (FIIa)
  kcat/KM: No Activity

## human α-thrombin (FIIa)
[1]
  kinetic parameters (kcat, KM and kcat/KM) of activation, compared with the unconjugated molecule: there is no significant effect of hepylation on the observed kinetic parameters for the tested molecule
[2]
  cleavage rate (kcat/KM) by thrombin, fold improvement over the parent PAR-1 sequence: >20-fold improved cleavage rates (kcat/KM) over the parent PAR-1 sequence
[3]
  kcat of activation by α-thrombin, relative to FX [191-194]>[MTPR]-HPC4: each of which have 5-10 fold higher kcat values than FX [191-194]>[MTPR]-HPC4
[4]
  kinetic parameters (kcat, KM and kcat/KM) of activation, compared with the unconjugated molecule: there is no significant effect of hepylation on the observed kinetic parameters for the tested molecule
[5]
  activation rate (kcat/KM) by α-thrombin, relative to FX ins[194]>[DFLAEGGGVR]-HPC4: This activation rate is 10× the observed activation rate for a variant having the unmodified FpA sequence (FX ins[194]>[DFLAEGGGVR]-HPC4)
[6]
  kinetic parameters (kcat, KM and kcat/KM) of activation, compared with the unconjugated molecule: there is no significant effect of hepylation on the observed kinetic parameters for the tested molecule
FX [191-194]>[LTPR]-HPC4
Sequence of FX [191-194]>[LTPR]-HPC4 (chain, as listed by the source): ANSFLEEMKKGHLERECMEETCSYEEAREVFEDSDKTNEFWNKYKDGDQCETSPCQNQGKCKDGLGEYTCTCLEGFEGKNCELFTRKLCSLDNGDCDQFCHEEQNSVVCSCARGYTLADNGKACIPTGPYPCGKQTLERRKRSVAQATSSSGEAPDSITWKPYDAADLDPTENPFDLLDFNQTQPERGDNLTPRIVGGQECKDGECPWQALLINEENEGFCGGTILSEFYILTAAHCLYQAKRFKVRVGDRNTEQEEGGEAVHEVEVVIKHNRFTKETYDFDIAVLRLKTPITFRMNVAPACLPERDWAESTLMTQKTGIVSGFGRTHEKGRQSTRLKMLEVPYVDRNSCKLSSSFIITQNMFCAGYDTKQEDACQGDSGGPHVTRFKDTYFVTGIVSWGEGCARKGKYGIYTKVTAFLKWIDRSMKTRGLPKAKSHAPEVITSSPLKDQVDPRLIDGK
  kcat of activation by α-thrombin, relative to FX [191-194]>[MTPR]-HPC4: each of which have 5-10 fold higher kcat values than FX [191-194]>[MTPR]-HPC4
[7]
  cleavage rate (kcat/KM) by thrombin: The most improved natural substrate was shown to be the FpA_P sequence, which has a proline residue at X2 instead of the naturally occurring valine

## Human plasma purified α-thrombin
[8]
  kcat/KM: 1000 M⁻¹ s⁻¹
[9]
  kcat/KM: 800 M⁻¹ s⁻¹
[10]
  kcat/KM: 9000 M⁻¹ s⁻¹
[11]
  kcat/KM: 600 M⁻¹ s⁻¹
[12]
  kcat/KM: 7000 M⁻¹ s⁻¹
[13]
  kcat/KM: 200 M⁻¹ s⁻¹
[14]
  FIIa kcat/KM: 30000 M⁻¹ s⁻¹
  kcat/KM: 30000 M⁻¹ s⁻¹
[15]
  kcat/KM: 10000 M⁻¹ s⁻¹
[16]
  kcat/KM: 0 M⁻¹ s⁻¹
[17]
  kcat/KM: 1000 M⁻¹ s⁻¹
[18]
  kcat/KM: 30 M⁻¹ s⁻¹
[19]
  kcat/KM: 20000 M⁻¹ s⁻¹
[20]
  FIIa kcat/KM: 30000 M⁻¹ s⁻¹
  kcat/KM: 30000 M⁻¹ s⁻¹
[21]
  kcat/KM: 20000 M⁻¹ s⁻¹
[22]
  kcat/KM: 700 M⁻¹ s⁻¹
[23]
  kcat/KM: 30000 M⁻¹ s⁻¹
[24]
  FIIa kcat/KM: 5000 M⁻¹ s⁻¹
  kcat/KM: 5000 M⁻¹ s⁻¹
[25]
  kcat/KM: 10000 M⁻¹ s⁻¹
[26]
  kcat/KM: 2 M⁻¹ s⁻¹
[27]
  kcat/KM: 610 M⁻¹ s⁻¹
[28]
  kcat/KM: 10 M⁻¹ s⁻¹
[29]
  kcat/KM: 9 M⁻¹ s⁻¹
[30]
  kcat/KM: 400 M⁻¹ s⁻¹
[31]
  kcat/KM: 700 M⁻¹ s⁻¹
[32]
  FIIa kcat/KM: 20000 M⁻¹ s⁻¹
  kcat/KM: 20000 M⁻¹ s⁻¹
[33]
  kcat/KM: 3 M⁻¹ s⁻¹
[34]
  FIIa kcat/KM: 8400 M⁻¹ s⁻¹
  kcat/KM: 8400 M⁻¹ s⁻¹
[35]
  FIIa kcat/KM: 20000 M⁻¹ s⁻¹
  kcat/KM: 20000 M⁻¹ s⁻¹
[36]
  kcat/KM: 0.0004 M⁻¹ s⁻¹
[37]
  FIIa kcat/KM: 9700 M⁻¹ s⁻¹
  kcat/KM: 9700 M⁻¹ s⁻¹
[38]
  kcat/KM: 1000 M⁻¹ s⁻¹
[39]
  kcat/KM: 2000 M⁻¹ s⁻¹
[40]
  kcat/KM: 2000 M⁻¹ s⁻¹
[41]
  kcat/KM: 2000 M⁻¹ s⁻¹
[42]
  kcat/KM: 500 M⁻¹ s⁻¹
[43]
  kcat/KM: 700 M⁻¹ s⁻¹
[44]
  kcat/KM: 300 M⁻¹ s⁻¹
[45]
  FIIa kcat/KM: 9700 M⁻¹ s⁻¹
  kcat/KM: 9700 M⁻¹ s⁻¹
[46]
  kcat/KM: 40000 M⁻¹ s⁻¹
[47]
  kcat/KM: 3000 M⁻¹ s⁻¹
[48]
  kcat/KM: 2000 M⁻¹ s⁻¹
[49]
  kcat/KM: 500 M⁻¹ s⁻¹
[50]
  kcat/KM: 1000 M⁻¹ s⁻¹
[51]
  kcat/KM: 1000 M⁻¹ s⁻¹
[52]
  kcat/KM: 0 M⁻¹ s⁻¹
[53]
  kcat/KM: 1000 M⁻¹ s⁻¹
[54]
  kcat/KM: 800 M⁻¹ s⁻¹
[55]
  FIIa kcat/KM: 7600 M⁻¹ s⁻¹
  kcat/KM: 7600 M⁻¹ s⁻¹
[56]
  FIIa kcat/KM: 9000 M⁻¹ s⁻¹
  kcat/KM: 9000 M⁻¹ s⁻¹
[57]
  kcat/KM: 4000 M⁻¹ s⁻¹
[58]
  kcat/KM: 5000 M⁻¹ s⁻¹
[59]
  kcat/KM: 7000 M⁻¹ s⁻¹
[60]
  kcat/KM: 600 M⁻¹ s⁻¹
[61]
  kcat/KM: 900 M⁻¹ s⁻¹
